Values quoted from earlier work as cited in article PMC7930624.
pKd: −log10 of the molar value. “And” between values parts separate entries of the source, which are not always exact repeats. Equal entries are not always repeated.

Target: ACE2 (Homo sapiens) (UniProt Q9BYF1)
Sequence (Q9BYF1 18-740): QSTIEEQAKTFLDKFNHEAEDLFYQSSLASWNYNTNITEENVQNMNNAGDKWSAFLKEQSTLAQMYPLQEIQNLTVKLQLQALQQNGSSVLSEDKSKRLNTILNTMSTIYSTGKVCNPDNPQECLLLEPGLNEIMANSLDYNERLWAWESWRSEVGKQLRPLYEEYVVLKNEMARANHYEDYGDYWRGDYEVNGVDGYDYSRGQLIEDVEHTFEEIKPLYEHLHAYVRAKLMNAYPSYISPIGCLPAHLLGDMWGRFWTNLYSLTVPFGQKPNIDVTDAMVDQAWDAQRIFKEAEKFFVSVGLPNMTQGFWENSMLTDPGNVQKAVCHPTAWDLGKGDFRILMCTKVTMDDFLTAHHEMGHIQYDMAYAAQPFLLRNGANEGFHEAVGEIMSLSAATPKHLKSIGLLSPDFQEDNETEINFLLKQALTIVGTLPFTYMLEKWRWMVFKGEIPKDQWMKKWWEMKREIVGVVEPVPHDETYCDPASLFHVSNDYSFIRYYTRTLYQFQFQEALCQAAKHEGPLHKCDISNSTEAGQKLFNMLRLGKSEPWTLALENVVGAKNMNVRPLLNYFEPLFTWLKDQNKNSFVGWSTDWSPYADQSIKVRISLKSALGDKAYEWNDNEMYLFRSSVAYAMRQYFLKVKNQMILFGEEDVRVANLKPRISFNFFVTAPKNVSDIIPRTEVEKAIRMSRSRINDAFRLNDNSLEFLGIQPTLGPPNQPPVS

Sequence of Human defensin-5 (Q01523 63-94): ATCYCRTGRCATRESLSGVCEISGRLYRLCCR

Q: With Human defensin-5 (from UniProt Q01523) as the substance, how does the pKd read?
A: 7.41 and 7.12
